Data reported in publication PMC10533412 (2023).

Assays:
BTN3A1 B30.2 = BTN3A1 B30.2 (Homo sapiens, UniProt O00481); experiment: ITC
BTN3A3 B30.2 = BTN3A3 B30.2 (Homo sapiens, UniProt O00478); experiment: ITC
BTN3A1 B30.2 domain = BTN3A1 B30.2 domain (human, UniProt O00481 328-513); experiment: ITC; with HMBPP
Sequence of BTN3A1 B30.2 domain (O00481 other isoform, or with tags, fused parts or gaps): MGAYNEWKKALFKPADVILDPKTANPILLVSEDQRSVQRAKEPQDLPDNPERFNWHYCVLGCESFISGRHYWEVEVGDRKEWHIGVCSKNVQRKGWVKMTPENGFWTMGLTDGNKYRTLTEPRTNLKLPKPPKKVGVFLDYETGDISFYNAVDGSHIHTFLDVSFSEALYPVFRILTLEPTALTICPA

Sequence of BTN3A1 B30.2 (O00481 319-513): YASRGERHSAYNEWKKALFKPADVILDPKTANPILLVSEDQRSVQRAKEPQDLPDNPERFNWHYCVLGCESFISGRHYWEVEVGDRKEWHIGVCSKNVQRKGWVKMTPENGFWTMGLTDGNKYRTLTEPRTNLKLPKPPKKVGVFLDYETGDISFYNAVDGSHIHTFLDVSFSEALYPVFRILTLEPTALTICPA
Sequence of BTN3A3 B30.2 (O00478 319-521): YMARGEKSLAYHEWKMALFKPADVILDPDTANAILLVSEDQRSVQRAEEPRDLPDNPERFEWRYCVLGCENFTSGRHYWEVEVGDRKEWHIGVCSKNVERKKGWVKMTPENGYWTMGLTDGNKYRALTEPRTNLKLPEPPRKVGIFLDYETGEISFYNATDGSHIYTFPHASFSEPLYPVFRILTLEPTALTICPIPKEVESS

Row | Kd (BTN3A1 B30.2) [nM] | Binder | further results
1 | 12300 | BTN2A1 B30.2 (protein, DMAPP) ELQVKEKLQEELRWRRTFLHAVDVVLDPDTAHPDLFLSEDRRSVRRCPFRHLGESVPDNPERFDSQPCVLGRESFASGKHYWEVEVENVIEWTVGVCRDSVERKGEVLLIPQNGFWTLEMHKGQYRAVSSPDRILPLKESLCRVGVFLDYEAGDVSFYNMRDRSHIYTCPRSAFSVPVRPFFRLGCEDSPIFICPALTGANGV | 
2 | 155000 | BTN2A1 B30.2 (protein, IPP) ELQVKEKLQEELRWRRTFLHAVDVVLDPDTAHPDLFLSEDRRSVRRCPFRHLGESVPDNPERFDSQPCVLGRESFASGKHYWEVEVENVIEWTVGVCRDSVERKGEVLLIPQNGFWTLEMHKGQYRAVSSPDRILPLKESLCRVGVFLDYEAGDVSFYNMRDRSHIYTCPRSAFSVPVRPFFRLGCEDSPIFICPALTGANGV | 
3 | 611 | BTN2A1 B30.2 (protein, HMBPP) ELQVKEKLQEELRWRRTFLHAVDVVLDPDTAHPDLFLSEDRRSVRRCPFRHLGESVPDNPERFDSQPCVLGRESFASGKHYWEVEVENVIEWTVGVCRDSVERKGEVLLIPQNGFWTLEMHKGQYRAVSSPDRILPLKESLCRVGVFLDYEAGDVSFYNMRDRSHIYTCPRSAFSVPVRPFFRLGCEDSPIFICPALTGANGV | 
4 |  | BTN2A1 B30.2 (protein) ELQVKEKLQEELRWRRTFLHAVDVVLDPDTAHPDLFLSEDRRSVHRCPFRHLGESVPDNPERFDSQPCVLGRESFASGKHYWEVEVENVIEWTVGVCRDSVERKGEVLLIPQNGFWTLEMHKGQYRAVSSPDRILPLKESLCRVGVFLDYEAGDVSFYNMRDRSHIYTCPRSAFSVPVRPFFRLGCEDSPIFICPALTGANGV | Kd (BTN3A3 B30.2): 460 nM
5 |  | BTN2A1 B30.2 domain (domain or fragment, limits from PDB 5ZXK/8JYE entity without the C-terminal LEHHHHHH; paper number minus 295 = entity position) EELRWRRTFLHAVDVVLDPDTAHPDLFLSEDRRSVRRCPFRHLGESVPDNPERFDSQPCVLGRESFASGKHYWEVEVENVIEWTVGVCRDSVERKGEVLLIPQNGFWTLEMHKGQYRAVSSPDRILPLKESLCRVGVFLDYEAGDVSFYNMRDRSHIYTCPRSAFSVPVRPFFRLGCEDSPIFICPALTGANGVTVPEEGLTLHRVGTHQSL | Kd (BTN3A1 B30.2 domain): 600 nM
